From the supplement of paper PMC9942255
Where “and” joins values, the source holds several entries; their conditions need not be identical. Equal values may be shown once.

Test system: Bacillus subtilis DB104 (SP-AmyQ fusion secretion)
Assay: AmyQ secretion efficiency, weighted average sort bin (1 = best secretion, 10 = worst) (bin number (weighted average, 1-10)); higher = lower secretion efficiency
Method in brief: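 Occupied alginate beads were sorted by large-particle flow cytometry into 10 equally populated bins according to green/red fluorescence ratio. Each bead (~65 nL) held fluorescein-starch and about 0.3 cells of a B. subtilis DB104 library expressing mature AmyQ fused to designed signal peptides from the amyE locus, and beads were grown about 13 h at room temperature and stained with nile red before sorting. Bin amplicons were Illumina-sequenced, and the secretion score is the read-frequency-weighted average bin number, normalised to beads per bin, excluding low-abundance sequences.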

MKKIVSILFMFGLVMGFSQFQPSTVFAASD
AmyQ secretion efficiency: 1.84

MKKIVSILFMFGLVMGFSQFQPSTVFAASP
AmyQ secretion efficiency: 1.65

MKKIVSILFMFGLVMGFSQFQPSTVFADED
AmyQ secretion efficiency: 4.03

MKKIVSILFMFGLVMGFSQFQPSTVFARRK
AmyQ secretion efficiency: 5.68

MKKIVSILFMFGLVMGFSQFQPSTVFGADK
AmyQ secretion efficiency: 4.23

MKKIVSILFMFGLVMGFSSFFPSTVFAADK
AmyQ secretion efficiency: 3.12

MKKIVSILFMFGLVMKKKQFQPSTVFAADK
AmyQ secretion efficiency: 7.82

MKKIVSILFMFGLVMRRKRKKPSTVFAADK
AmyQ secretion efficiency: 7.34

MKKIVSILFMFGLVMSIISLGFSQFQPSTVFAADK
AmyQ secretion efficiency: 2.96

MKKIWIGMLAAAMVPKVSLADAA
AmyQ secretion efficiency: 5.25

MKKIWIGMLAAAVLLLITISVTAAMVPKVSLADAA
AmyQ secretion efficiency: 5

MKKIWIGMLAAAVLLLMVPKVDLADAA
AmyQ secretion efficiency: 4.2

MKKIWIGMLAAAVLLLMVPKVGLADAA
AmyQ secretion efficiency: 3.24

MKKIWIGMLAAAVLLLMVPKVMLADAA
AmyQ secretion efficiency: 4.26

MKKIWIGMLAAAVLLLMVPKVSLAAAD
AmyQ secretion efficiency: 5.09

MKKIWIGMLAAAVLLLMVPKVSLADAA
AmyQ secretion efficiency: 3.23 and 2.34 and 3.08

MKKIWIGMLAAAVLLLMVPKVSLAEDD
AmyQ secretion efficiency: 4.09

MKKIWIGMLAAAVLLLMVPKVSLRDAA
AmyQ secretion efficiency: 4.91

MKKIWIGMLAAAVLLLMVPKVSPAVPSGFSLADAA
AmyQ secretion efficiency: 6.35

MKKIWIGMLAAAVLLLMVPKVVLADAA
AmyQ secretion efficiency: 3.66

MKKIWIGMLAAAVLLLRKPKVSLADAA
AmyQ secretion efficiency: 7.91

MKKIWIGMLAAAVLLLRKRKKKSLADAA
AmyQ secretion efficiency: 6.58

MKKIWIGMLAAAVLLLSVFAMVPKVSLADAA
AmyQ secretion efficiency: 4.61

MKKIWIGMLAAAVLLLTKPKESLADAA
AmyQ secretion efficiency: 3.56

MKKKIIRFLLVSFVLFFALSTGITGVQAAPA
AmyQ secretion efficiency: 2.57

MKKKIRRKKKKSAVVGSSMAAAPAEAKTI
AmyQ secretion efficiency: 7.24

MKKKIRRRKAVSAVVGSSMAAAPAEAKTI
AmyQ secretion efficiency: 5.54

MKKKIVAGLAVSAGSSMAAAPAEAKTI
AmyQ secretion efficiency: 7.16

MKKKIVAGLAVSAVVDEDEEAAPAEAKTI
AmyQ secretion efficiency: 5.93

MKKKIVAGLAVSAVVGAEAKTI
AmyQ secretion efficiency: 8.76

MKKKIVAGLAVSAVVGSSMAAEAKTI
AmyQ secretion efficiency: 5.65

MKKKIVAGLAVSAVVIVAMAAAIAEAKTI
AmyQ secretion efficiency: 6.55

MKKKIVAGLAVSAVVQDDPSAAPAEAKTI
AmyQ secretion efficiency: 7.07

MKKKIVAGLAVSAVVRRRRAAAPAEAKTI
AmyQ secretion efficiency: 7.4

MKKKIVALLAVIAVVSGSSMAAAPAEAKTI
AmyQ secretion efficiency: 3.11

MKKKKAAAVLLSLGLVFGFSYGAGHVAEAKTK
AmyQ secretion efficiency: 1.65

MKKKKAGLFLAAAVLLCLMVPQQIQGASS
AmyQ secretion efficiency: 4.01

MKKKKKRIITATTAVVLGSTLFAGAASAQSI
AmyQ secretion efficiency: 1.46

MKKKKKRVGLLAGCLAAGGFSYNAFATEN
AmyQ secretion efficiency: 6.9

MKKKKMLSMLTVMIASLFIFSSQALAVQY
AmyQ secretion efficiency: 3.15

MKKKKRKFVLIVCIIFTSALFPTFSSVTAAQG
AmyQ secretion efficiency: 1.03

MKKKKRRIVSILFMFGLVMGFSQFQPSTVFAADK
AmyQ secretion efficiency: 3.29

MKKKKRYSQRFLVALTMCGGLFVTPAKAVKT
AmyQ secretion efficiency: 6.94

MKKKKYVVLVLSIAGIGGFSVHAASS
AmyQ secretion efficiency: 6.5

MKKKLAAGLTASAIVGTTLVDEPAEAATI
AmyQ secretion efficiency: 5.66

MKKKLAAGLTASAIVGTTLVEDEEDAEAATI
AmyQ secretion efficiency: 6.91

MKKKLAAGLTASAIVGTTLVGGGAEAATI
AmyQ secretion efficiency: 4.73

MKKKLAAGLTASAIVGTTLVIVTPAEAATI
AmyQ secretion efficiency: 3.35

MKKKLAAGLTASAIVGTTLVRKKKAEAATI
AmyQ secretion efficiency: 8.06

MKKKLAAGLTASAIVGTTLVTTISAVTPAEAATI
AmyQ secretion efficiency: 2.98

MKKKLAAGLTASAIVGTTLVVAEAATI
AmyQ secretion efficiency: 5.78

MKKKLAAGLTASAIVGTTLVVFTAEAATI
AmyQ secretion efficiency: 5.8

MKKKLAAGLTASAIVGTTLVVTPAEAADE
AmyQ secretion efficiency: 3.03

MKKKLAAGLTASAIVGTTLVVTPAEAARK
AmyQ secretion efficiency: 3.53

MKKKLAAGLTASAIVGTTLVVTPAEAATD
AmyQ secretion efficiency: 2.88

MKKKLAAGLTASAIVGTTLVVTPAEAATR
AmyQ secretion efficiency: 2.36

MKKKLAAGLTASAIVGTTLVVTPAEADDD
AmyQ secretion efficiency: 5.01

MKKKLAAGLTASAIVGTTLVVTPAEAKRK
AmyQ secretion efficiency: 6.02

MKKKLAAGLTASAIVGTTLVVTPAECATI
AmyQ secretion efficiency: 4.47

MKKKLAAGLTASAIVGTTLVVTPAEDATI
AmyQ secretion efficiency: 6.33

MKKKLAAGLTASAIVGTTLVVTPAEEATI
AmyQ secretion efficiency: 6.94

MKKKLAAGLTASAIVGTTLVVTPAEGATI
AmyQ secretion efficiency: 3.33

MKKKLAAGLTASAIVGTTLVVTPAEKATI
AmyQ secretion efficiency: 7.23

MKKKLAAGLTASAIVGTTLVVTPAELATI
AmyQ secretion efficiency: 5.54

MKKKLAAGLTASAIVGTTLVVTPAEPATI
AmyQ secretion efficiency: 6.62

MKKKLAAGLTASAIVGTTLVVTPAERATI
AmyQ secretion efficiency: 5.86

MKKKLAAGLTASAIVGTTLVVTPAESATI
AmyQ secretion efficiency: 3.72

MKKKLAAGLTASAIVGTTLVVTPAETATI
AmyQ secretion efficiency: 5.92

MKKKLAAGLTASAIVGTTLVVTPAEVATI
AmyQ secretion efficiency: 6.56

MKKKLAAGLTASAIVGTTLVVTPAEWATI
AmyQ secretion efficiency: 7.78

MKKKLAAGLTASAIVGTTLVVTPAEYATI
AmyQ secretion efficiency: 6.06

MKKKLAAGLTASAIVGTTLVVTPCEAATI
AmyQ secretion efficiency: 1.75

MKKKLAAGLTASAIVGTTLVVTPDEAATI
AmyQ secretion efficiency: 5.54

MKKKLAAGLTASAIVGTTLVVTPEEAATI
AmyQ secretion efficiency: 5.83

MKKKLAAGLTASAIVGTTLVVTPFEAATI
AmyQ secretion efficiency: 5.7

MKKKLAAGLTASAIVGTTLVVTPIEAATI
AmyQ secretion efficiency: 2.11

MKKKLAAGLTASAIVGTTLVVTPKEAATI
AmyQ secretion efficiency: 4.56

MKKKLAAGLTASAIVGTTLVVTPLEAATI
AmyQ secretion efficiency: 3.17

MKKKLAAGLTASAIVGTTLVVTPNEAATI
AmyQ secretion efficiency: 6.96

MKKKLAAGLTASAIVGTTLVVTPPEAATI
AmyQ secretion efficiency: 5.33

MKKKLAAGLTASAIVGTTLVVTPPTAPGGAEAATI
AmyQ secretion efficiency: 6.5

MKKKLAAGLTASAIVGTTLVVTPQEAATI
AmyQ secretion efficiency: 5.9

MKKKLAAGLTASAIVGTTLVVTPREAATI
AmyQ secretion efficiency: 6.83

MKKKLAAGLTASAIVGTTLVVTPSEAATI
AmyQ secretion efficiency: 3.77

MKKKLAAGLTASAIVGTTLVVTPTAAEAATI
AmyQ secretion efficiency: 2.99

MKKKLAAGLTASAIVGTTLVVTPTEAATI
AmyQ secretion efficiency: 2.75

MKKKLAAGLTASAIVGTTLVVTPVEAATI
AmyQ secretion efficiency: 2.24

MKKKLAAGLTASAIVGTTLVVTPWEAATI
AmyQ secretion efficiency: 6.58

MKKKLAAGLTASAIVGTTLVVTPYEAATI
AmyQ secretion efficiency: 5.36

MKKKLAAGLTASAIVGTTLVVVFAEAATI
AmyQ secretion efficiency: 6.57

MKKKLAAGLTASAIVGTVTPAEAATI
AmyQ secretion efficiency: 5.84

MKKKLAAGLTASAVTPAEAATI
AmyQ secretion efficiency: 6.26

MKKKLKKGLTASAIVGTTLVVTPAEAATI
AmyQ secretion efficiency: 5.93

MKKKLKRKKRRSAIVGTTLVVTPAEAATI
AmyQ secretion efficiency: 6.61

MKKKMLNLFLAAGLTASAIVGTTLVVTPAEAATI
AmyQ secretion efficiency: 4.26

MKKKNSISSLNMLAAGLTASAIVGTTLVVTPAEAATI
AmyQ secretion efficiency: 2.17
